# Legend:
# [1] = molecular target: recombinant Lhcb1 protein (LHCII apoprotein reconstituted in vitro with chlorophylls and xanthophylls); assay: sucrose density gradient ultracentrifugation; in vitro trimerization of Lhcb1 reconstituted with lutein as only xanthophyll (100% lutein) plus Chl a and b; bound to Ni2+ column, washed with 0.1 mg/ml PG, 0.06% β-DM, 0.2 M NaCl, 20 mM phosphate pH 7.5, 10 mM imidazole; eluted, trimers separated from monomers on a sucrose gradient
# [2] = molecular target: recombinant Lhcb1 protein (LHCII apoprotein reconstituted in vitro with chlorophylls and xanthophylls); assay: sucrose density gradient ultracentrifugation; in vitro trimerization of Lhcb1 reconstituted with a mix of all xanthophylls (L,V,N) plus Chl a and b; bound to Ni2+ column, washed with 0.1 mg/ml PG, 0.06% β-DM, 0.2 M NaCl, 20 mM phosphate pH 7.5, 10 mM imidazole; eluted, trimers separated from monomers on a sucrose gradient
substance,measurement,setting,value
recombinant Lhcb1 protein (LHCII apoprotein reconstituted in vitro with chlorophylls and xanthophylls) (natural protein),stoichiometry N,[1],3
same,stoichiometry N,[2],3

# Source: publication PMC1769499
